Patent US20230139516A1 (CEDARS SINAI MEDICAL CENTER, published 2023)

Experiments:
[1] = target: T1, 3×FLAG-tagged RIPK2 (RIPK2m4 with C-terminal 3×FLAG tag) (human, UniProt O43353 1-540); experiment: IP of RIPK2 complexes, label-free MS (heatmap and LFQ histogram, FIG. 5A-B)
T1 construct: The same label (3×Flag-tagged RIPK2, expressed in HeLa cells) is the enzyme of the in vitro kinase assay; also called RIPK2-Flag; RIPK2m4-3×FLAG; not shown: 3×FLAG tag fused to the C-terminus

[2] = target: T2, c-Myc (human, UniProt P01106-1 1-439, limits assumed); experiment: PLA of endogenous proteins in HEK293T cells (FIG. 21B)
T2 construct: also called c-Myc oncoprotein
T2 sequence (P01106 16-454 limits assumed): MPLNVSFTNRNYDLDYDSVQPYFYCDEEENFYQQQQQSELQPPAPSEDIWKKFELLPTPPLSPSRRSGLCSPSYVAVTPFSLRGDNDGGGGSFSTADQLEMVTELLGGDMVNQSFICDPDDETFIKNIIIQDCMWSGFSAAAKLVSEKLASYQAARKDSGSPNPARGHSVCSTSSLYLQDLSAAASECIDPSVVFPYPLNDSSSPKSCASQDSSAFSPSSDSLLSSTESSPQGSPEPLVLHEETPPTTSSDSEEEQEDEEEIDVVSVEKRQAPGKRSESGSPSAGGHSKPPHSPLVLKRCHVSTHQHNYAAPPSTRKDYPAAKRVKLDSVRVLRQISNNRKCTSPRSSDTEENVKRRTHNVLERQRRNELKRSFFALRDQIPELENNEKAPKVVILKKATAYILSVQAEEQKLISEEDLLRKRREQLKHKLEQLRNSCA

[3] = target: T3, receptor-interacting protein kinase 2 (RIPK2), endogenous (human, UniProt O43353 1-540); experiment: PLA of endogenous proteins in HEK293T and parental PC cells (FIG. 20A-B)
T3 construct: Endogenous protein detected in cells with anti-RIPK2 antibodies (PLA, IP)
T3 sequence (O43353 whole entry): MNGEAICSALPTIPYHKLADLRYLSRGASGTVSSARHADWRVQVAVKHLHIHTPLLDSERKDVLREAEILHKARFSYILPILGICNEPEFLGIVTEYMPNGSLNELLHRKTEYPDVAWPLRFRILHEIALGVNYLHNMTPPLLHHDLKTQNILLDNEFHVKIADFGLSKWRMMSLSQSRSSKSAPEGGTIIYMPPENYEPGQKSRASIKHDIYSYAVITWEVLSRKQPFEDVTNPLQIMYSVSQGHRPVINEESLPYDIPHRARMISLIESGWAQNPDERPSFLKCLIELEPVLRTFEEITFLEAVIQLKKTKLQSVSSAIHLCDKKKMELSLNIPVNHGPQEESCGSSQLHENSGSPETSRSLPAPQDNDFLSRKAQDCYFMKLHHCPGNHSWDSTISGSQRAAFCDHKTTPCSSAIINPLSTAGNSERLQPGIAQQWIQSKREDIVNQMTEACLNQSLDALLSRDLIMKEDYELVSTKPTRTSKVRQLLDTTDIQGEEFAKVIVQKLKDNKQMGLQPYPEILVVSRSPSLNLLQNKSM

Measured: binding result

T1 sequence (O43353 whole entry, the tested form may be a part): as the sequence (O43353 whole entry) above

B1: MKK7 (MAP2K7), endogenous (enzyme, human, UniProt O14733 2-419, looked up)
chain: AASSLEQKLSRLEAKLKQENREARRRIDLNLDISPQRPRPTLQLPLANDGGSRSPSSESSPQHPTPPARPRHMLGLPSTLFTPRSMESIEIDQKLQEIMKQTGYLTIGGQRYQAEINDLENLGEMGSGTCGQVWKMRFRKTGHVIAVKQMRRSGNKEENKRILMDLDVVLKSHDCPYIVQCFGTFITNTDVFIAMELMGTCAEKLKKRMQGPIPERILGKMTVAIVKALYYLKEKHGVIHRDVKPSNILLDERGQIKLCDFGISGRLVDSKAKTRSAGCAAYMAPERIDPPDPTKPDYDIRADVWSLGISLVELATGQFPYKNCKTDFEVLTKVLQEEPPLLPGHMGFSGDFQSFVKDCLTKDHRKRPKYNKLLEHSFIKRYETLEVDVASWFKDVMAKTESPRTSGVLSQPHLPFFR
binds: all assays above
